Read-outs that look alike come from different tables or passages of the source.
Columns and labels:
[1] = molecular target: ZIKV envelope protein (E) in infected Vero cells (Zika virus (MR766 strain)); assay: proximity ligation
[2] = molecular target: ZIKV envelope protein (E) in infected Vero cells (Zika virus (MR766 strain)); assay: proximity ligation; remark: listed apart in the source

“naturally occurring dynein (cytoplasmic dynein-1) of Vero cells, detected by its heavy chain (natural protein)” was tested, and the PLA dots per cell (dots per cell) [1] was > 6 and the PLA dots per cell (dots per cell) [2] was < 1.

From article doi:10.1101/2022.06.15.496315
